{
  "source": "paper PMC3919264",
  "about": "“The crystal structure and biochemical characterization of Kif15: a bifunctional molecular motor involved in bipolar spindle formation and neuronal development” (Acta Crystallographica Section D: Biological Crystallography, 2013)",
  "binders": {"B1": {"name": "Homo sapiens Kif15 motor domain with cover strand and neck linker (Kif15 1-375) (domain or fragment, human, UniProt Q9NS87 1-375, looked up)", "chain": "MAPGCKTELRSVTNGQSNQPSNEGDAIKVFVRIRPPAERSGSADGEQNLCLSVLSSTSLRLHSNPEPKTFTFDHVADVDTTQESVFATVAKSIVESCMSGYNGTIFAYGQTGSGKTFTMMGPSESDNFSHNLRGVIPRSFEYLFSLIDREKEKAGAGKSFLCKCSFIEIYNEQIYDLLDSASAGLYLREHIKKGVFVVGAVEQVVTSAAEAYQVLSGGWRNRRVASTSMNRESSRSHAVFTITIESMEKSNEIVNIRTSLLNLVDLAGSERQKDTHAEGMRLKEAGNINRSLSCLGQVITALVDVGNGKQRHVCYRDSKLTFLLRDSLGGNAKTAIIANVHPGSRCFGETLSTLNFAQRAKLIKNKAVVNEDTQG"}},
  "target": "taxol-polymerized microtubules from bovine brain tubulin (bovine (purified from bovine brain), UniProt Q6B856 1-445)",
  "experiment": "cell-based or functional assay",
  "data": [
    {"binder": "B1", "values": [
      {"measurement": "MT activation of Mant-ADP release, stopped flow, 25°C, various MT concentrations with chasing Mg2+-ATP (MTs here from pig brain tubulin; preliminary data)", "value": "~1000", "unit": "fold"}
    ]}
  ]
}
